# Assay results reported in US20050080013A1 (Pfizer, published 2005).
# Non-standard residues stand in square brackets, D forms with d. No end group written: not given here. *: point of attachment. Nal = naphthylalanine (isomer not specified); Dansyl = CN(C)c1cccc2c(S(=O)(=O)*)cccc12; Orn = NCCC[C@H](N)C(=O)O; Aib = CC(C)(N)C(=O)O
# T1: lecithin:cholesterol acyltransferase (LCAT), purified from human plasma (human, UniProt P04180 25-440)
# T1 sequence (looked up): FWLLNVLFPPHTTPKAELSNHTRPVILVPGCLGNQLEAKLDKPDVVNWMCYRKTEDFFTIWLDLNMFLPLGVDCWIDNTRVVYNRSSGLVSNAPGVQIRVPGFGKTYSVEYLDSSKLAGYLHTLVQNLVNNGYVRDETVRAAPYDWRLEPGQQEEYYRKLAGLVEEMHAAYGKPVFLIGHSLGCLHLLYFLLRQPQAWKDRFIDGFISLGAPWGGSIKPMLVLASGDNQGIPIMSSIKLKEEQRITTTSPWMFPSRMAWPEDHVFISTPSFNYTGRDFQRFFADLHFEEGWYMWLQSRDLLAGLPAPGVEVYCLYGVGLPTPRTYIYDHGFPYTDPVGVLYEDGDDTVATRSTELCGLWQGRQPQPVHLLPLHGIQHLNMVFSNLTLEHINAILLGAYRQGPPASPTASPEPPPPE
# B1: peptide 214 (peptide)
# peptide: Ac-[dP]VLDLFRELLEELKQKLK-NH2
# SMILES: CC(=O)N1CCC[C@@H]1C(=O)N[C@H](C(=O)N[C@@H](CC(C)C)C(=O)N[C@@H](CC(=O)O)C(=O)N[C@@H](CC(C)C)C(=O)N[C@@H](Cc1ccccc1)C(=O)N[C@@H](CCCNC(=N)N)C(=O)N[C@@H](CCC(=O)O)C(=O)N[C@@H](CC(C)C)C(=O)N[C@@H](CC(C)C)C(=O)N[C@@H](CCC(=O)O)C(=O)N[C@@H](CCC(=O)O)C(=O)N[C@@H](CC(C)C)C(=O)N[C@@H](CCCCN)C(=O)N[C@@H](CCC(N)=O)C(=O)N[C@@H](CCCCN)C(=O)N[C@@H](CC(C)C)C(=O)N[C@@H](CCCCN)C(N)=O)C(C)C
# B2: peptide 211 (peptide)
# peptide: Ac-PVLDLFRELLEEL[Orn]Q[Orn]L[Orn]-NH2
# SMILES: CC(=O)N1CCC[C@H]1C(=O)N[C@H](C(=O)N[C@@H](CC(C)C)C(=O)N[C@@H](CC(=O)O)C(=O)N[C@@H](CC(C)C)C(=O)N[C@@H](Cc1ccccc1)C(=O)N[C@@H](CCCNC(=N)N)C(=O)N[C@@H](CCC(=O)O)C(=O)N[C@@H](CC(C)C)C(=O)N[C@@H](CC(C)C)C(=O)N[C@@H](CCC(=O)O)C(=O)N[C@@H](CCC(=O)O)C(=O)N[C@@H](CC(C)C)C(=O)N[C@@H](CCCN)C(=O)N[C@@H](CCC(N)=O)C(=O)N[C@@H](CCCN)C(=O)N[C@@H](CC(C)C)C(=O)N[C@@H](CCCN)C(N)=O)C(C)C
# B3: peptide 212 (peptide)
# peptide: Ac-PVLDLF[Orn]ELLEEL[Orn]Q[Orn]LK-NH2
# SMILES: CC(=O)N1CCC[C@H]1C(=O)N[C@H](C(=O)N[C@@H](CC(C)C)C(=O)N[C@@H](CC(=O)O)C(=O)N[C@@H](CC(C)C)C(=O)N[C@@H](Cc1ccccc1)C(=O)N[C@@H](CCCN)C(=O)N[C@@H](CCC(=O)O)C(=O)N[C@@H](CC(C)C)C(=O)N[C@@H](CC(C)C)C(=O)N[C@@H](CCC(=O)O)C(=O)N[C@@H](CCC(=O)O)C(=O)N[C@@H](CC(C)C)C(=O)N[C@@H](CCCN)C(=O)N[C@@H](CCC(N)=O)C(=O)N[C@@H](CCCN)C(=O)N[C@@H](CC(C)C)C(=O)N[C@@H](CCCCN)C(N)=O)C(C)C
# Target: T1, lecithin:cholesterol acyltransferase …
# Assay: cell-based or functional assay
row,Binder,ACTIVITY (%) LCAT [%]
1,Ac-EWLKAFYEKVLEKLKELF-NH2 [peptide 238],19
2,B1,39
3,PVLDAFRELLEALAQLKK [peptide 223],8
4,PVLDLFRELLNELWQKLK [peptide 219],24
5,GIKKFLGSIWKFIKAFVG [peptide 242],7
6,Ac-DVLDLFRELLEELKQKLK-NH2 [peptide 221],12
7,AVLDLFRELLNELLEALKQKLK [peptide 29],39
8,GVLDLFRELLNELLEALKQKLK [peptide 18],58
9,B2,45
10,PVLDLFRELLNELLEGLKQKLK [peptide 22],54
11,PVLDLFRELLNELLELLKQKLK [peptide 26],47
12,Ac-PVLDLFRELLEEWKQKLK-NH2 [peptide 215],38
13,PVLELFKELLEELKQKLK [peptide 216],35
14,PVLDLFREGLNELLEALKQKLK [peptide 20],57
15,Ac-PALELFKDLLEELRQRLK-NH2 [peptide 208],48
16,Ac-PVLELLKELLEELKQKLK-NH2 [peptide 207],50
17,XVLDLFRELLNELLEALKQKLK (D-Pro (p) at 1) [peptide 21],57
18,PVLDLFRELLNELLQKLK [peptide 209],47
19,PVLDLFRELLNELLEALQKKLK [peptide 24],53
20,PVLDLFRELLNELWEALKQKLK [peptide 28],40
21,DWLKAFYDKVAEKLKEAF [peptide 244],5
22,Ac-PLLELLKELLEELKQKLK-NH2 [peptide 206],57
23,DWFKAFYDKFFEKFKEFF [peptide 247],3
24,Ac-EWLEAFYKKVLEKLKELF-NH2 [peptide 239],11
25,DWFKAFYDKVAEKFKEAF [peptide 243],5
26,Ac-PVLDLFRELLNELLQKLK-NH2 [peptide 218],29

row,Binder,ACTIVITY (%) LCAT [%]
1,Ac-PALELFKDLLEEFRQRLK-NH2 [peptide 213],42
2,DWFKAFYDKVFEKFKEFF [peptide 241],8
3,PVLDLFLELLNE[Aib]LEALKQKLK [peptide 31],34
4,Ac-PVLDLFRELGEELKQKLK-NH2 [peptide 227],0
5,PVLDAFRELLEALLQLKK [peptide 222],8
6,PVLDAFRELGEALLQLKK [peptide 226],1
7,PVLDLFRELLNEL[Nal]EALKQKLK (not fully specified) [peptide 27],44
8,PVLDLFRELLEELKQKLK [peptide 210],46
9,Ac-DWLKAFYDKVAEKLKEAF-NH2 [peptide 240],10
10,Ac-PVLDLFRELLEEGKQKLK-NH2 [peptide 229],0
11,GVLDLFRELLNELLEALKQKLKK [peptide 2],105
12,Ac-PVLDLFREGLEELKQKLK-NH2 [peptide 228],0
13,PVLDLFRELLELLKQKLK [peptide 217],30
14,LDDLLQKWAEAFNQLLKK [peptide 237],11
15,B3,43
16,DWLKAFYDKVFEKFKEFF [peptide 245],4
17,[dP]VLDLFRELLNEGLEALKQKLK [peptide 19],58
18,PVLDLFREGWEELKQKLK [peptide 224],8
19,PVLDFFRELLNE[Aib]LEALKQKLK [peptide 25],51
20,PVLDAFRELAEALAQLKK [peptide 225],1
21,Dansyl-PVLDLFRELLNELLEALKQKLK [peptide 30],38
22,PVLDLFRELLEELQKKLK [peptide 220],22
23,EWLEAFYKKVLEKLKELF [peptide 246],4
24,PLLELFKELLQELLEALKQKLK [peptide 23],54
25,PVLDLFRELLNELLEWLKQKLK [peptide 3],98
